Substitutions are numbered along the chain they refer to. In names and notes the source's numbering stands.
How the values were obtained:
Test in all cases: cell-based or functional assay
[1] = biological target: HIV-1 strain PVO.4 envelope (gp120) (HIV-1)
[2] = biological target: HIV-1 strain CNE53 envelope (gp120) (HIV-1)
[3] = biological target: HIV-1 strain 6535.3 envelope (gp120) (HIV-1)
[4] = biological target: HIV-1 strain 1006_11_C3_1601 envelope (gp120) (HIV-1)
[5] = biological target: HIV-1 Env of strain REJO4541.67 (HIV-1)
[6] = biological target: HIV-1 Env of strain 0815.v3.c3 (HIV-1)
[7] = biological target: HIV-1 strain C1080.c03 envelope (gp120) (HIV-1)
[8] = biological target: HIV-1 strain R2184.04 envelope (gp120) (HIV-1)
[9] = biological target: HIV-1 strain 231965.c01 envelope (gp120) (HIV-1)
[10] = biological target: HIV-1 Env of strain 6535.3 (HIV-1)
[11] = biological target: HIV-1 strain RHPA4259.7 envelope (gp120) (HIV-1)
[12] = biological target: HIV-1 Env of strain QH0692.42 (HIV-1)
[13] = biological target: HIV-1 Env of strain PVO.4 (HIV-1)
[14] = biological target: HIV-1 Env of strain ZM53M.PB12 (HIV-1)
[15] = biological target: HIV-1 Env of strain WEAU_d15_410_787 (HIV-1)
[16] = biological target: HIV-1 Env of strain 6811.v7.c18 (HIV-1)
[17] = biological target: HIV-1 Env of strain Q842.d12 (HIV-1)
[18] = biological target: HIV-1 Env of strain TRO.11 (HIV-1)
[19] = biological target: HIV-1 strain 620345.c01 envelope (gp120) (HIV-1)
[20] = biological target: HIV-1 Env of strain Q769.d22 (HIV-1)
[21] = biological target: HIV-1 Env of strain P1981_C5_3 (HIV-1)
[22] = biological target: HIV-1 Env of strain HIV-16845-2.22 (HIV-1)
[23] = biological target: HIV-1 Env of strain X2131_C1_B5 (HIV-1)
[24] = biological target: HIV-1 strain Ce703010054_2A2 envelope (gp120) (HIV-1)
[25] = biological target: HIV-1 Env of strain X1193_c1 (HIV-1)
[26] = biological target: HIV-1 strain 6540.v4.c1 envelope (gp120) (HIV-1)
[27] = biological target: HIV-1 Env of strain T257-31 (HIV-1)
[28] = biological target: HIV-1 strain Q842.d12 envelope (gp120) (HIV-1)
[29] = biological target: HIV-1 strain SC422661.8 envelope (gp120) (HIV-1)
[30] = biological target: HIV-1 strain TRO.11 envelope (gp120) (HIV-1)
[31] = biological target: HIV-1 strain 6480.v4.c25 envelope (gp120) (HIV-1)
[32] = biological target: HIV-1 Env of strain Q23.17 (HIV-1)
[33] = biological target: HIV-1 strain X1254_c3 envelope (gp120) (HIV-1)
[34] = biological target: HIV-1 strain Ce2010_F5 envelope (gp120) (HIV-1)
[35] = biological target: HIV-1 Env of strain 3817.v2.c59 (HIV-1)
[36] = biological target: HIV-1 Env of strain ZM197M.PB7 (HIV-1)
[37] = biological target: HIV-1 strain CAP45.2.00.G3 envelope (gp120) (HIV-1)
[38] = biological target: HIV-1 strain CNE20 envelope (gp120) (HIV-1)
[39] = biological target: HIV-1 Env of strain 3415.v1.c1 (HIV-1)
[40] = biological target: HIV-1 Env of strain CAAN5342.A2 (HIV-1)
[41] = biological target: HIV-1 Env of strain RHPA4259.7 (HIV-1)
[42] = biological target: HIV-1 Env of strain 3718.v3.c11 (HIV-1)
[43] = biological target: HIV-1 strain 6811.v7.c18 envelope (gp120) (HIV-1)
[44] = biological target: HIV-1 strain 89-F1_2_25 envelope (gp120) (HIV-1)
[45] = biological target: HIV-1 Env of strain CNE17 (HIV-1)
[46] = biological target: HIV-1 strain ZM135M.PL10a envelope (gp120) (HIV-1)
[47] = biological target: HIV-1 Env of strain Q461.e2 (HIV-1)
[48] = biological target: HIV-1 Env of strain 211-9 (HIV-1)
[49] = biological target: HIV-1 Env of strain R2184.c04 (HIV-1)
[50] = biological target: HIV-1 Env of strain T251-18 (HIV-1)

B1: NIH45-46^G54Y IgG (antibody, name in Kabat numbering, V domains shown)
VH: QVRLSQSGGQMKKPGESMRLSCRASGYEFLNCPINWIRLAPGRRPEWMGWLKPRYGAVNYARKFQGRVTMTRDVYSDTAFLELRSLTSDDTAVYFCTRGKYCTARDYYNWDFEHWGRGAPVTVSS
VL: EIVLTQSPATLSLSPGETAIISCRTSQSGSLAWYQQRPGQAPRLVIYSGSTRAAGIPDRFSGSRWGADYNLSISNLESGDFGVYYCQQYEFFGQGTKVQVDI
neutralization IC80 [1]: 0.18 µg/mL
neutralization IC80 [2]: 0.027 µg/mL
neutralization IC80 [3]: 0.24 µg/mL
neutralization IC80 [4]: 0.021 µg/mL
neutralization IC50 [5]: 7 ng/mL
neutralization IC50 [6]: < 1 ng/mL
neutralization IC80 [7]: 1.83 µg/mL
neutralization IC80 [8]: 0.045 µg/mL
neutralization IC80 [9]: 0.054 µg/mL
neutralization IC50 [10]: 0.08 µg/mL
neutralization IC80 [11]: 0.02 µg/mL
neutralization IC50 [12]: 0.52 µg/mL
neutralization IC50 [13]: 0.06 µg/mL
neutralization IC50 [14]: 0.06 µg/mL
neutralization IC50 [15]: 2 ng/mL
neutralization IC50 [16]: 0.011 µg/mL
neutralization IC50 [17]: 0.015 µg/mL
neutralization IC50 [18]: 0.08 µg/mL
neutralization IC80 [19]: > 50 µg/mL
neutralization IC50 [20]: 7 ng/mL
neutralization IC50 [21]: 0.04 µg/mL
neutralization IC50 [22]: 0.59 µg/mL
neutralization IC50 [23]: 0.1 µg/mL
neutralization IC80 [24]: 0.07 µg/mL
neutralization IC50 [25]: 6 ng/mL
neutralization IC80 [26]: > 50 µg/mL
neutralization IC50 [27]: 0.18 µg/mL
neutralization IC80 [28]: 0.045 µg/mL
neutralization IC80 [29]: 0.09 µg/mL
neutralization IC80 [30]: 0.22 µg/mL
neutralization IC80 [31]: 0.051 µg/mL
neutralization IC50 [32]: 0.02 µg/mL
neutralization IC80 [33]: 0.041 µg/mL
neutralization IC80 [34]: 0.235 µg/mL
neutralization IC50 [35]: > 50 µg/mL
neutralization IC50 [36]: 0.07 µg/mL
neutralization IC80 [37]: > 50 µg/mL
neutralization IC80 [38]: 2.4 µg/mL
neutralization IC50 [39]: < 1 ng/mL
neutralization IC50 [40]: 0.1 µg/mL
neutralization IC50 [41]: 7 ng/mL
neutralization IC50 [42]: 0.3 µg/mL
neutralization IC80 [43]: 0.059 µg/mL
neutralization IC80 [44]: > 50 µg/mL
neutralization IC50 [45]: 0.073 µg/mL
neutralization IC80 [46]: 0.3 µg/mL
neutralization IC50 [47]: 0.023 µg/mL
neutralization IC50 [48]: > 50 µg/mL
neutralization IC50 [49]: 0.015 µg/mL
neutralization IC50 [50]: 0.35 µg/mL

B2: NIH45-46^G54W(HC), S28Y(LC) (antibody, V domains shown)
VH: B1 VH with Y55W
VL: B1 VL with S28Y
IC50, pseudovirus neutralization [5]: 1 ng/mL
IC50, pseudovirus neutralization [6]: 1 ng/mL
IC50, pseudovirus neutralization [10]: 0.015 µg/mL
IC50, pseudovirus neutralization [12]: 0.216 µg/mL
IC50, pseudovirus neutralization [13]: 0.014 µg/mL
IC50, pseudovirus neutralization [14]: 0.091 µg/mL
IC50, pseudovirus neutralization [15]: 8 ng/mL
IC50, pseudovirus neutralization [16]: 0.026 µg/mL
IC50, pseudovirus neutralization [17]: 1 ng/mL
IC50, pseudovirus neutralization [18]: 0.02 µg/mL
IC50, pseudovirus neutralization [20]: 3 ng/mL
IC50, pseudovirus neutralization [21]: 0.012 µg/mL
IC50, pseudovirus neutralization [22]: 0.38 µg/mL
IC50, pseudovirus neutralization [23]: 0.031 µg/mL
IC50, pseudovirus neutralization [25]: 8 ng/mL
IC50, pseudovirus neutralization [27]: 0.126 µg/mL
IC50, pseudovirus neutralization [32]: 0.015 µg/mL
IC50, pseudovirus neutralization [35]: 5.14 µg/mL
IC50, pseudovirus neutralization [36]: 0.074 µg/mL
IC50, pseudovirus neutralization [39]: 13 ng/mL
IC50, pseudovirus neutralization [40]: 0.078 µg/mL
IC50, pseudovirus neutralization [41]: 1 ng/mL
IC50, pseudovirus neutralization [45]: 0.064 µg/mL
IC50, pseudovirus neutralization [47]: 0.034 µg/mL
IC50, pseudovirus neutralization [48]: 0.253 µg/mL
IC50, pseudovirus neutralization [49]: 8 ng/mL
IC50, pseudovirus neutralization [50]: 0.336 µg/mL

B3: NIH45-46^G54W IgG (antibody, name in Kabat numbering, V domains shown)
VH: B1 VH with Y55W
VL: B1 VL
neutralization IC80 [1]: 0.16 µg/mL
neutralization IC80 [2]: 0.005 µg/mL
neutralization IC80 [3]: 0.13 µg/mL
neutralization IC80 [4]: 0.008 µg/mL
neutralization IC50 [5]: 2 ng/mL
neutralization IC50 [6]: < 1 ng/mL
neutralization IC80 [7]: 0.91 µg/mL
neutralization IC80 [8]: 0.036 µg/mL
neutralization IC80 [9]: 0.035 µg/mL
neutralization IC50 [10]: 0.03 µg/mL
neutralization IC80 [11]: 0.007 µg/mL
neutralization IC50 [12]: 0.37 µg/mL
neutralization IC50 [13]: 0.05 µg/mL
neutralization IC50 [14]: 0.04 µg/mL
neutralization IC50 [15]: < 1 ng/mL
neutralization IC50 [16]: < 0.001 µg/mL
neutralization IC50 [17]: 0.005 µg/mL
neutralization IC50 [18]: 0.04 µg/mL
neutralization IC80 [19]: > 50 µg/mL
neutralization IC50 [20]: < 1 ng/mL
neutralization IC50 [21]: 0.02 µg/mL
neutralization IC50 [22]: 0.45 µg/mL
neutralization IC50 [23]: 0.05 µg/mL
neutralization IC80 [24]: 0.077 µg/mL
neutralization IC50 [25]: < 1 ng/mL
neutralization IC80 [26]: > 50 µg/mL
neutralization IC50 [27]: 0.13 µg/mL
neutralization IC80 [28]: 0.025 µg/mL
neutralization IC80 [29]: 0.07 µg/mL
neutralization IC80 [30]: 0.13 µg/mL
neutralization IC80 [31]: 0.021 µg/mL
neutralization IC50 [32]: 0.01 µg/mL
neutralization IC80 [33]: 0.018 µg/mL
neutralization IC80 [34]: 0.187 µg/mL
neutralization IC50 [35]: > 50 µg/mL
neutralization IC50 [36]: 0.04 µg/mL
neutralization IC80 [37]: > 50 µg/mL
neutralization IC80 [38]: 0.48 µg/mL
neutralization IC50 [39]: < 1 ng/mL
neutralization IC50 [40]: 0.07 µg/mL
neutralization IC50 [41]: < 1 ng/mL
improvement of neutralization potency over NIH45-46 [42]: 2000 fold
neutralization IC50 [42]: 0.01 µg/mL
neutralization IC80 [43]: 0.033 µg/mL
neutralization IC80 [44]: > 50 µg/mL
neutralization IC50 [45]: 0.036 µg/mL
neutralization IC80 [46]: 0.16 µg/mL
neutralization IC50 [47]: 0.009 µg/mL
neutralization IC50 [48]: 16.4 µg/mL
neutralization IC50 [49]: 0.005 µg/mL
neutralization IC50 [50]: 0.26 µg/mL

B4: NIH45-46^G54W (antibody, V domains shown)
VH: B1 VH with Y55W
VL: B1 VL
IC50, pseudovirus neutralization [5]: 2 ng/mL
IC50, pseudovirus neutralization [6]: 1 ng/mL
IC50, pseudovirus neutralization [10]: 0.03 µg/mL
IC50, pseudovirus neutralization [12]: 0.37 µg/mL
IC50, pseudovirus neutralization [13]: 0.05 µg/mL
IC50, pseudovirus neutralization [14]: 0.04 µg/mL
IC50, pseudovirus neutralization [15]: 1 ng/mL
IC50, pseudovirus neutralization [16]: 0.001 µg/mL
IC50, pseudovirus neutralization [17]: 5 ng/mL
IC50, pseudovirus neutralization [18]: 0.04 µg/mL
IC50, pseudovirus neutralization [20]: 1 ng/mL
IC50, pseudovirus neutralization [21]: 0.02 µg/mL
IC50, pseudovirus neutralization [22]: 0.45 µg/mL
IC50, pseudovirus neutralization [23]: 0.05 µg/mL
IC50, pseudovirus neutralization [25]: 1 ng/mL
IC50, pseudovirus neutralization [27]: 0.13 µg/mL
IC50, pseudovirus neutralization [32]: 0.01 µg/mL
IC50, pseudovirus neutralization [35]: > 50 µg/mL
IC50, pseudovirus neutralization [36]: 0.04 µg/mL
IC50, pseudovirus neutralization [39]: 1 ng/mL
IC50, pseudovirus neutralization [40]: 0.07 µg/mL
IC50, pseudovirus neutralization [41]: 1 ng/mL
IC50, pseudovirus neutralization [45]: 0.036 µg/mL
IC50, pseudovirus neutralization [47]: 0.009 µg/mL
IC50, pseudovirus neutralization [48]: 16.4 µg/mL
IC50, pseudovirus neutralization [49]: 5 ng/mL
IC50, pseudovirus neutralization [50]: 0.26 µg/mL

Source: patent publication US20130209454A1
